From the RNAGym collection of RNA variant scans (doi:10.7554/elife.90254)

B1: LINE1-full (parent)
chain: UACGUAGGUGGUUUUCCCCUGAUAGUGCUAAGGGGGCCUGGAAGUUUGGACUGGGCAGAGCUCAACACAGCGUGGCAAAGUGGCUGUGGCUAGACUGCCUCUCUGGAUUCCUCGUCACUCAGCAGGGCAUCUCUGAGAGAAAUGCC

Variants of: B1
Assay: self-cleavage, relative activity (ratio to wild type); higher = more cleavage; in vitro, sequencing; the parent is a self-cleaving ribozyme

Variant	self-cleavage
UACGUAGGUGGUUUUCCCCUGAUAGAGCUAAGGGGGCCUGGAAGUUUGGACUGGGCAGAGCUCAACACAGCGUGGCAAAGUAGCUGUGGCUAGACUGCCUCUCUGGAUUCCUCGUCACUCAGCAGGGCAUCUCUGAGAGAAAUGCC [U26A G82A]	1.18
UACGUAGGUGGUUUUCCCCUGAUAGUGCUAAGGGGGCCUGGAAGUUUGGACUGGGCAGAGCUCAACACAGCGUGGCAAAGUGGCUGUGGCUAGACCGCCUCUCUGGAUUCCUCGUCACUCAGCAGGGCAUCUCUGAGAGAAUUGCC [U96C A142U]	0.12
UACGUAGGUGGUUUUCCCCUGAUAGUGCUAAGGGGGCCUGGAAGUUUGGACAGGGCAGAGCUCAACACAGCGUGGCAAAGUGGCUGUGGCUAGAAUGCCUCUCUGGAUUCCUCGUCACUCAGCAGGGCAUCUCUGAGAGAAAUGCC [U52A C95A]	0.09
UACGUAGGUGGUUUUCCCCUGAUAGUGCUAAGGGGGCCUGGAAGUUGGGACUGGGCAGAGCUCAACACAGCGUGGCAAAGUGGCUGUGGCUAGACUGCCUCUCUGGAUUCCUCGUCACUCAGCAGGGCAUCUCUGAGAGAACUGCC [U47G A142C]	1.25
UACGUAGGUGGUCUUCCCCUGAUAGUGCUAAGGGGGCCUGGAAGUUUGGACUGGGCAGAGCUCAACACAGCGUGGCAAAGUGGUUGUGGCUAGACUGCCUCUCUGGAUUCCUCGUCACUCAGCAGGGCAUCUCUGAGAGAAAUGCC [U13C C84U]	0.11
UACGUAGGUGGUUUUCCCCUGAUAGUGCUAAGGGGGCCUGGAAGUUUGGACUGGGCAGAGCUCAACACAGCGUGGCAAAGUGGCUGUGGCUAGACUGCCUCUCUGGAUUCCUCGUCACUCACCAGGGCAUCUCUGUGAGAAAUGCC [G122C A136U]	1.96
UACGUAGGUGGUUUUCCCCUGAUAGUGCUAAGGGGGCCCGGAAGUUUGGACUGGGCAGAGCUCAACACAGCGUGGCAAAGUGGCUGUGGCUAGACUGCCUCUCUGGAUUCCUCGUCACUCAGCAGGGCAUCUCUAAGAGAAAUGCC [U39C G135A]	1.2
UACGUAGGUGGUUUUCCCCUGAUAGUGCUAAGGGGGCCUGGAAGUUUGGACUGGGCAGAGCUCAACACAGCGUGGCGAAGUGGCUGUGGCUAGACUGCCUCUCGGGAUUCCUCGUCACUCAGCAGGGCAUCUCUGAGAGAAAUGCC [A77G U104G]	1.87
UACGUAGGUGGUUUUCCCCUGAUAGUGCUAAGGGGGCCUGGAAGUUUGGACUGGGCAGAGCUCAACACAGCGUGGCAAAGUGGCAGUGGCUAGACUGCCUCUCUGGAUUCCUCGUCACUCUGCAGGGCAUCUCUGAGAGAAAUGCC [U85A A121U]	0.07
UACGUAGGUGGUUUUCCCCUGAUAGUGCUAAGGGGGCCUGGAAGUUUGGACUGGGCAGAGCUCCACACAGCGUGGCAAAGUGGCCGUGGCUAGACUGCCUCUCUGGAUUCCUCGUCACUCAGCAGGGCAUCUCUGAGAGAAAUGCC [A64C U85C]	0.02
UACGUAGGUGGUUUUCCCCUGACAGUGCUAAGGGGGCCUGGAAGUUUGGACUGGGCAGAGCUCAACACAGCGUGGCAAAGAGGCUGUGGCUAGACUGCCUCUCUGGAUUCCUCGUCACUCAGCAGGGCAUCUCUGAGAGAAAUGCC [U23C U81A]	1.85
UACGUAGGUGGUUUUCCCCUGAUAGUGCUAAGGGGGCCUGGAAGUUUGGACUGCGCAGAGUUCAACACAGCGUGGCAAAGUGGCUGUGGCUAGACUGCCUCUCUGGAUUCCUCGUCACUCAGCAGGGCAUCUCUGAGAGAAAUGCC [G54C C61U]	0.05
UACGUAGGUGGUUUUCCCCUGAUAGUGCUAAGGGGGCCAGGAAGUUUGGACUGGGCAGAGCCCAACACAGCGUGGCAAAGUGGCUGUGGCUAGACUGCCUCUCUGGAUUCCUCGUCACUCAGCAGGGCAUCUCUGAGAGAAAUGCC [U39A U62C]	0.05
UACGUAGGUGGUUUUCCCCUGAUAGUGCUAAGGGGGCCUGGAAGUUUGGACUGGGCAGAGCUCAACACAGCGUGGCAAAGUGGCUGUGGCUAGACUGCCUCUCAGGAUUCCUCGUCACUCAGCAGGGCAUCUCUGAGAGACAUGCC [U104A A141C]	0.47
UACGUAGGUGGUUUUCCCCUGGUAGUGCUAAGGGGGCCUGGAAGUUUGGACUGGGCAGAGCUCAACACAGCGUGGCAAAGUGGCUGUGGCUAGACUGCCUCUCUGGAUUCCUCGUCACUCAGUAGGGCAUCUCUGAGAGAAAUGCC [A22G C123U]	0.99
UACGUAGGUGGUUUACCCCUGAUAGUGCUAAGGGGGCCUGGAAGUUUGGUCUGGGCAGAGCUCAACACAGCGUGGCAAAGUGGCUGUGGCUAGACUGCCUCUCUGGAUUCCUCGUCACUCAGCAGGGCAUCUCUGAGAGAAAUGCC [U15A A50U]	1.43
CACGUAGGUGGUUUUCCCCUGAUAGUGCUAAGGGGGCCUGGAAGUUUGGACUGGGCAGAGCUCAACACAGCGUGGCAAAGUGGCUGUGGCUAGACUGCCUCUCUGGAUUCCUCGUCACCCAGCAGGGCAUCUCUGAGAGAAAUGCC [U1C U119C]	0.78
UACGCAGGUGGUUUUCCCCUGAUAGUGCUAAGGGGGCCUGGAAGUUUGGACUGGGCAGAGCUCAACACAGCGUGGCAAAGUGGCUGUGGCUAGACUGCCUCUCUGGAUUCCUCGUCACUCAGCAGGGCAUCUCUGAGUGAAAUGCC [U5C A138U]	1.58
UACGUAGGUGGUUUUCCCCUGAUAGUGCUAAGGGGGCCUGGAAGUUUGGACUGGGCAGCGCUCAACACAGCGUGGCAAAGUGGCUGUGGCUAGACUGCCUCUCUGGAUUCCUCGUCACUCAGCAGGGCAUCUCUGAGUGAAAUGCC [A59C A138U]	1.62
UACGUAGGUGGUUUUCCCCUGAUAGUGCUAAGGGGGCCUGGAAGUUUGGACUGGGCAGAGCUCAACACAGCGUGGCGAAGUGGCUGUGGCUAGACUGCCUCUCUGGAUUCCUCGUCACUCAGCAGGACAUCUCUGAGAGAAAUGCC [A77G G127A]	2.11

Variant	self-cleavage
UACGUAGGUGGUCUCCCCCUGAUAGUGCUAAGGGGGCCUGGAAGUUUGGACUGGGCAGAGCUCAACACAGCGUGGCAAAGUGGCUGUGGCUAGACUGCCUCUCUGGAUUCCUCGUCACUCAGCAGGGCAUCUCUGAGAGAAAUGCC [U13C U15C]	1.03
UACGUAGGUGGUUUUCCCCUGAUAGUGCUAAGGGGGCCUGGAAGUUUGGACUGGGCAGAGCUCAUCACAGCGUGGCAAAGUGGCUGUGGCUAGACUGCCUCUCUGGAUUCCUCGUCACUCAGCAAGGCAUCUCUGAGAGAAAUGCC [A65U G125A]	0.21
UACGUAGGUGGUUUUCCCCUGAUAGUGCUAAGGGGGCCUGGAAGUUUGGACUGGGCAGAGCUCAACACAGCGUGGCAAAGUGGCUGAGGCUAGACUGCCUCUCUGGAUCCCUCGUCACUCAGCAGGGCAUCUCUGAGAGAAAUGCC [U87A U109C]	0.11
UACGUAGGUGGUUUUCCCCUGAUAGUGCUAAGGGGGCCUGGAAGUUUGGCCUGGGCAGAGCUCAACACAGCGUGGCAAAGAGGCUGUGGCUAGACUGCCUCUCUGGAUUCCUCGUCACUCAGCAGGGCAUCUCUGAGAGAAAUGCC [A50C U81A]	1.76
UGCGUAGGUGGUUUUCCCCUGAUAGUGCUAAGGGGGCCUGGAAGUUUGGACUGGGCAGAGCUCAACACAGCGUGGCAAAGUGGCUGUGGCUAGACUGCCUCUCUGGAUUCCUCGUCACUCAGCAGGGCAUCGCUGAGAGAAAUGCC [A2G U132G]	1.6
UACGUAGGUGGUUUUCCCCUGAUAGUGCUAAGGUGGCCUGGAAGUUUGGACUGGGCAGAGCUCAACACAGCGUGGCAAAGUGGCUGUGGCUAGACUGCCUCUCUGGAUUCCUCGUCACUCAGCUGGGCAUCUCUGAGAGAAAUGCC [G34U A124U]	1.6
UACGUAGGUGGUUUUCCCCUGAUAGUGCUAAGGGGGCCUGGAAGUUUGGACUGGGCAGAGCUCAACGCAGCGUGGCAAAGUGGCUGUGGCUAGACUGCCUCUCUGGAUCCCUCGUCACUCAGCAGGGCAUCUCUGAGAGAAAUGCC [A67G U109C]	0.16
UACGUAGGUGGUUUUCCCCUGAUAGUGCUAAGGGGGCCUGGAAGUUUAGACUGGGCAGAGCUCAACACGGCGUGGCAAAGUGGCUGUGGCUAGACUGCCUCUCUGGAUUCCUCGUCACUCAGCAGGGCAUCUCUGAGAGAAAUGCC [G48A A69G]	0.3
UACGUAGGUGGUUUUCCCCUGAUAGUGCUAAGGGGGCCUGGAAGUUUGGACUGGGCAGAGCUCAACUCUGCGUGGCAAAGUGGCUGUGGCUAGACUGCCUCUCUGGAUUCCUCGUCACUCAGCAGGGCAUCUCUGAGAGAAAUGCC [A67U A69U]	0.04
UACGUAGGUGGUUUUCCCCUGAUAGUGCUAAGGGGGCCUGGAAGUUUGGACUGGGCAGAGCUCAAUACAGCGUGGCAAAGUGGCUGUGGCUAGACUGCCUCUCUGGAUUCCUCGUCACUCAGCAGGGCACCUCUGAGAGAAAUGCC [C66U U130C]	0.05
UACGUAUGUGGUUUUCCCCUGAUAGUGCUAAGGGGGCCUGGAAGUUUGGACUGGGCAGAGCUCAACACAGCGUGGCAAAGUGGCAGUGGCUAGACUGCCUCUCUGGAUUCCUCGUCACUCAGCAGGGCAUCUCUGAGAGAAAUGCC [G7U U85A]	0.13
UACGUAGGUGGUUUUCCCCUGAUAGUGCUAAGGGGGCCUGAAAGUUUGGACUGGGCAGAGCUCAACACAGCGUGGCAUAGUGGCUGUGGCUAGACUGCCUCUCUGGAUUCCUCGUCACUCAGCAGGGCAUCUCUGAGAGAAAUGCC [G41A A78U]	2.63
UACGUAGGUGGUUUUCCCCUGAUAGUGCUAAGGGGGCCUGGAAGUUUGGACUGGGCAGAGCUCAACACAGCGUGGCAAAGUGGCUGUGGCUAGACUGCCUCUCUGGAUACCUCGUCACUCAGCAGGGCAUCUCUGAGAGAGAUGCC [U109A A141G]	1.76
UACGUAGGUGGUUUUCCCCUGAUAGUGAUAAGGGGGCCUGGAAGUUUGGACUGAGCAGAGCUCAACACAGCGUGGCAAAGUGGCUGUGGCUAGACUGCCUCUCUGGAUUCCUCGUCACUCAGCAGGGCAUCUCUGAGAGAAAUGCC [C28A G54A]	0.57
UACGUAGGUGGUCUUCCCCUGAUAGUGCUAAGGGGGCCUGGAAGUUUGGACUGGGCAGAGCUCAACACAGCGUGGCAAAGUGGCUGUGGCUAGACUGCCUCCCUGGAUUCCUCGUCACUCAGCAGGGCAUCUCUGAGAGAAAUGCC [U13C U102C]	1.4
UACGUAGGUGGUUUUCCCCUGAUAGUGCUAAGGGGGCCUGGAAGUUUGGACUGGGAAGAGCUCAACACAGCGUGGCAAAGUGGCUGUGGCUAGACUGCCCCUCUGGAUUCCUCGUCACUCAGCAGGGCAUCUCUGAGAGAAAUGCC [C56A U100C]	0.1
UACGUAGGUGGUUCUCCCCUGAUAGUGCUAAGGGGGCCUGGAAGUUUGGACUGGGCAGUGCUCAACACAGCGUGGCAAAGUGGCUGUGGCUAGACUGCCUCUCUGGAUUCCUCGUCACUCAGCAGGGCAUCUCUGAGAGAAAUGCC [U14C A59U]	0.88
UACGUAGGUGGUUUUCCCCUGAUAGUGCUAAGGGGGCCUGGAAGUUUGGACUGGGCAGAGCUCAACACAGCGUGGCAAAGCGGCUGUGGCUAGACUGCCUCUCUGGAUUCCACGUCACUCAGCAGGGCAUCUCUGAGAGAAAUGCC [U81C U112A]	1.42
UACGUAGGUGGGUUUCCCCCGAUAGUGCUAAGGGGGCCUGGAAGUUUGGACUGGGCAGAGCUCAACACAGCGUGGCAAAGUGGCUGUGGCUAGACUGCCUCUCUGGAUUCCUCGUCACUCAGCAGGGCAUCUCUGAGAGAAAUGCC [U12G U20C]	1.02
